Test results taken from US10800813 (Bicycle, dated 2020).
Where two headings read alike, the source gives them in different places. Numbered stars: 1 amine (or outer) side, 2 acyl side, 3 side chain; on linkers, the order of the positions; unused ones are H or OH. Bridge positions count the residues as written; N and C are the ends. Square brackets hold non-standard residues; d marks the D form. Ends that are not written are not given here. Phe(4-guanidino) = N=C(N)Nc1ccc(C[C@H](N)C(=O)O)cc1; TBMB = c1c(C[*:1])cc(C[*:3])cc1C[*:2]; NMeR = CN[C@@H](CCCNC(=N)N)C(=O)O; hArg = N=C(N)NCCCC[C@H](N)C(=O)O

B1: Ac-06-34-18(TMB)-NH2 (peptide)
peptide: Ac-CSWPARCLHQDLC-NH2
modifications: linker 1-7-13 via TBMB
SMILES: CC(=O)N[C@H]1CSCc2cc3cc(c2)CSC[C@H](NC(=O)[C@H](CCCNC(=N)N)NC(=O)[C@H](C)NC(=O)[C@@H]2CCCN2C(=O)[C@H](Cc2c[nH]c4ccccc24)NC(=O)[C@H](CO)NC1=O)C(=O)N[C@@H](CC(C)C)C(=O)N[C@@H](Cc1c[nH]cn1)C(=O)N[C@@H](CCC(N)=O)C(=O)N[C@@H](CC(=O)O)C(=O)N[C@@H](CC(C)C)C(=O)N[C@H](C(N)=O)CSC3
notes: also called Ac-(06-34-18) wildtype; Ac-(06-34-18) WPAR
B2: Ac-(06-34-18) Phe2 Tyr4 4GuanPhe5 (peptide)
peptide: Ac-CSFPY[Phe(4-guanidino)]CLHQDLC-NH2
modifications: linker 1-7-13 via TBMB
SMILES: CC(=O)N[C@H]1CSCc2cc3cc(c2)CSC[C@H](NC(=O)[C@H](Cc2ccc(NC(=N)N)cc2)NC(=O)[C@H](Cc2ccc(O)cc2)NC(=O)[C@@H]2CCCN2C(=O)[C@H](Cc2ccccc2)NC(=O)[C@H](CO)NC1=O)C(=O)N[C@@H](CC(C)C)C(=O)N[C@@H](Cc1c[nH]cn1)C(=O)N[C@@H](CCC(N)=O)C(=O)N[C@@H](CC(=O)O)C(=O)N[C@@H](CC(C)C)C(=O)N[C@H](C(N)=O)CSC3
B3: Ac-(06-34-18) Phe2 Tyr4 HomoArg5 (peptide)
peptide: Ac-CSFPY[hArg]CLHQDLC-NH2
modifications: linker 1-7-13 via TBMB
SMILES: CC(=O)N[C@H]1CSCc2cc3cc(c2)CSC[C@H](NC(=O)[C@H](CCCCNC(=N)N)NC(=O)[C@H](Cc2ccc(O)cc2)NC(=O)[C@@H]2CCCN2C(=O)[C@H](Cc2ccccc2)NC(=O)[C@H](CO)NC1=O)C(=O)N[C@@H](CC(C)C)C(=O)N[C@@H](Cc1c[nH]cn1)C(=O)N[C@@H](CCC(N)=O)C(=O)N[C@@H](CC(=O)O)C(=O)N[C@@H](CC(C)C)C(=O)N[C@H](C(N)=O)CSC3
B4: Ac-(06-34-18) Phe2 Tyr4 NMeArg5 (peptide)
peptide: Ac-CSFPY[NMeR]CLHQDLC-NH2
modifications: linker 1-7-13 via TBMB
SMILES: CC(=O)N[C@H]1CSCc2cc3cc(c2)CSC[C@H](NC(=O)[C@H](CCCNC(=N)N)N(C)C(=O)[C@H](Cc2ccc(O)cc2)NC(=O)[C@@H]2CCCN2C(=O)[C@H](Cc2ccccc2)NC(=O)[C@H](CO)NC1=O)C(=O)N[C@@H](CC(C)C)C(=O)N[C@@H](Cc1c[nH]cn1)C(=O)N[C@@H](CCC(N)=O)C(=O)N[C@@H](CC(=O)O)C(=O)N[C@@H](CC(C)C)C(=O)N[C@H](C(N)=O)CSC3
B5: Ac-06-34-18(TMB)-NH2 Phe2Tyr4 (peptide)
peptide: Ac-CSFPYRCLHQDLC-NH2
modifications: linker 1-7-13 via TBMB
SMILES: CC(=O)N[C@H]1CSCc2cc3cc(c2)CSC[C@H](NC(=O)[C@H](CCCNC(=N)N)NC(=O)[C@H](Cc2ccc(O)cc2)NC(=O)[C@@H]2CCCN2C(=O)[C@H](Cc2ccccc2)NC(=O)[C@H](CO)NC1=O)C(=O)N[C@@H](CC(C)C)C(=O)N[C@@H](Cc1c[nH]cn1)C(=O)N[C@@H](CCC(N)=O)C(=O)N[C@@H](CC(=O)O)C(=O)N[C@@H](CC(C)C)C(=O)N[C@H](C(N)=O)CSC3
notes: also called Ac-(06-34-18) FPYR; Ac-(06-34-18) Phe2 Tyr4

How the values were obtained:
[1] = molecular target: Human plasmin (human, UniProt P00747 97-810); experiment: enzyme inhibition assay
Chain of Human plasmin (P00747 97-810 limits assumed): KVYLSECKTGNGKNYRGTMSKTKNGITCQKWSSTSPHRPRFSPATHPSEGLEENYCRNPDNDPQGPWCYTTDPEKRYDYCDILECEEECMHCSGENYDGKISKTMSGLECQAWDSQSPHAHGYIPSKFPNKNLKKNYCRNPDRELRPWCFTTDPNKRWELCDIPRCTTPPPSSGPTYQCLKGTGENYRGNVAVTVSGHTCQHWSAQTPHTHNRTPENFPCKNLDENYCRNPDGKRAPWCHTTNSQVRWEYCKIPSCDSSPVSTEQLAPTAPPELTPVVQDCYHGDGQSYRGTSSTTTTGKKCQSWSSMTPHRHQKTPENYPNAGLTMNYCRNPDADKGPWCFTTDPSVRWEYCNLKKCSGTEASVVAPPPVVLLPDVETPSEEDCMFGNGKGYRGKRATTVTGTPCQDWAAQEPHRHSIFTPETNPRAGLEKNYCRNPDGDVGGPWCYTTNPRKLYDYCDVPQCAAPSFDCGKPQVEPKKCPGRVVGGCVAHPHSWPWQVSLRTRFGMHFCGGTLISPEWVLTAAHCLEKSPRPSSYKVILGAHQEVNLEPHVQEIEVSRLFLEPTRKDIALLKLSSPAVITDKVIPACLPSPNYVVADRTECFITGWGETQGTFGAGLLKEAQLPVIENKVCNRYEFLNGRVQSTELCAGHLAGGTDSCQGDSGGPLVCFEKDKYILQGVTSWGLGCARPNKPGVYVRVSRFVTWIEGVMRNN

[2] = molecular target: T1, human plasma Kallikrein (human, UniProt P03952 20-638, limits assumed); experiment: enzyme inhibition assay
T1 construct: also called hPK; human PK
T1 sequence (P03952 20-638 limits assumed): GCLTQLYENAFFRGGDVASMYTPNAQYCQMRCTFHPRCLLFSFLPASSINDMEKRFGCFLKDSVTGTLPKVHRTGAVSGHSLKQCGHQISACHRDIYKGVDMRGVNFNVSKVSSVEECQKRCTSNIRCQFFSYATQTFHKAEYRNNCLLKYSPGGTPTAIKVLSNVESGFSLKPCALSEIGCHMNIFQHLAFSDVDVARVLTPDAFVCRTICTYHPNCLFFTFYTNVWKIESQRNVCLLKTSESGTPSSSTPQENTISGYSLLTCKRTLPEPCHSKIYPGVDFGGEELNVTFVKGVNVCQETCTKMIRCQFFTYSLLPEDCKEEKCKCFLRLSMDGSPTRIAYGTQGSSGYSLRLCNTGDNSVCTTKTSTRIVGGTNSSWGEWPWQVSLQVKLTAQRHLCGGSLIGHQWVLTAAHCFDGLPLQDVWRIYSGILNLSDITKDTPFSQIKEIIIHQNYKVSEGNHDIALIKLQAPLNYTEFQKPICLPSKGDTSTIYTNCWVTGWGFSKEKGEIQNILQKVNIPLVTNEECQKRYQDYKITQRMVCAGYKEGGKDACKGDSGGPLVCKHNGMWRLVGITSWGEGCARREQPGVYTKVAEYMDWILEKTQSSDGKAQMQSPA

[3] = molecular target: T2, Monkey plasma Kallikrein (monkey (Macaca mulatta), UniProt A0A1D5Q7U7 391-638); experiment: enzyme inhibition assay
T2 construct: domain: catalytic domain; also called mPK
T2 sequence (A0A1D5Q7U7 entry or part of it): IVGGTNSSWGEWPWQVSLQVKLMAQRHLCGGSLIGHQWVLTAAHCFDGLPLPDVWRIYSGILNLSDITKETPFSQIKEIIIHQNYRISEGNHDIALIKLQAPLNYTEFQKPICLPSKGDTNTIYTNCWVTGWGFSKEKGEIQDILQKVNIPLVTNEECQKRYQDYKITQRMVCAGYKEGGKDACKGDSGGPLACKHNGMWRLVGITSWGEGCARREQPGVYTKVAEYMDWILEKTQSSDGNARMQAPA

[4] = molecular target: T3, Rat plasma Kallikrein (rat, UniProt P14272 391-638, limits assumed); experiment: enzyme inhibition assay
T3 construct: domain: catalytic domain; also called rPK; rat PK
T3 sequence (P14272 391-638 limits assumed): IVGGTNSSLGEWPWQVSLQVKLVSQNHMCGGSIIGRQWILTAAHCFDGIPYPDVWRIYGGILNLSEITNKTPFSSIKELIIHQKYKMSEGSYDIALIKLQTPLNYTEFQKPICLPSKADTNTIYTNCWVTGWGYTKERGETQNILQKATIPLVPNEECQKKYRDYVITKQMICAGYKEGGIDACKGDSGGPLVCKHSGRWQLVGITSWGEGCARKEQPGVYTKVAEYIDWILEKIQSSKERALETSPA

[5] = molecular target: T1, human plasma Kallikrein; experiment: enzyme inhibition assay; remark: listed apart in the source
[6] = molecular target: T4, Human factor XIa (human, UniProt P03951 19-625); experiment: enzyme inhibition assay
T4 construct: also called hfXIa

[7] = molecular target: T1, human plasma Kallikrein; experiment: enzyme inhibition assay; remark: listed apart in the source
[8] = molecular target: T1, human plasma Kallikrein; experiment: enzyme inhibition assay; remark: listed apart in the source
[9] = molecular target: T1, human plasma Kallikrein; experiment: enzyme inhibition assay; remark: listed apart in the source
[10] = molecular target: T1, human plasma Kallikrein; experiment: enzyme inhibition assay; remark: listed apart in the source
[11] = molecular target: T1, human plasma Kallikrein; experiment: enzyme inhibition assay; remark: listed apart in the source
[12] = molecular target: T1, human plasma Kallikrein; experiment: enzyme inhibition assay; remark: listed apart in the source
[13] = molecular target: T1, human plasma Kallikrein; experiment: enzyme inhibition assay; remark: listed apart in the source
[14] = molecular target: T3, Rat plasma Kallikrein; experiment: enzyme inhibition assay; values relative, not absolute
[15] = molecular target: T1, human plasma Kallikrein; experiment: enzyme inhibition assay; remark: listed apart in the source
[16] = molecular target: T1, human plasma Kallikrein; experiment: enzyme inhibition assay; remark: listed apart in the source
[17] = molecular target: T1, human plasma Kallikrein; experiment: enzyme inhibition assay; remark: listed apart in the source
[18] = molecular target: T3, Rat plasma Kallikrein; experiment: enzyme inhibition assay; values relative, not absolute; remark: listed apart in the source
[19] = molecular target: T1, human plasma Kallikrein; experiment: enzyme inhibition assay; remark: listed apart in the source
[20] = molecular target: T1, human plasma Kallikrein; experiment: enzyme inhibition assay; remark: listed apart in the source
[21] = molecular target: T1, human plasma Kallikrein; experiment: enzyme inhibition assay; remark: listed apart in the source

Binder	Ki [2] [nM]	Ki [3] [nM]	Ki [4] [nM]	Ki [6] [nM]	IC50 [18] [nM]	Ki [19] [nM]	also measured
ACTYPYKCLHQNLCA (linker 2-8-14 via TBMB, also called PK112) [2A10]	18	23	66				Ki [1]: 30000 nM; Ki [5]: 4.98 nM
ACFKACRVNCA (linker 2-6-10 via TBMB, also called PK117) [3B3]		11	24	57			
H-ACSDRFRNCPADEALCG-NH2 (linker 2-9-16 via TBMB, 6x6 bicyclic peptide) [PK15]	3	4	941	75000			
B1							Ki [7]: 0.17 nM; Ki [8]: 0.17 nM; Ki [9]: 0.17 nM; Ki [10]: 0.17 nM; Ki [11]: 0.17 nM; Ki [12]: 0.17 nM; Ki [13]: 0.17 nM; IC50 [14]: 1.7 nM; Ki [15]: 0.17 nM; Ki [16]: 0.17 nM; Ki [17]: 0.17 nM
B2					2.5	0.4	
B3					19.7	0.77	
B4					60.2	3.56	
B5					13.8	0.46	Ki [9]: 0.46 nM; Ki [20]: 0.46 nM
ACFKHCRVACA (linker 2-6-10 via TBMB, also called PK123) [3B8]	7	9	12	52			Ki [21]: 0.95 nM
